{"source": "paper PMC9354405", "target": "HBV S/preS1^16-42 chimeric antigen (Hepatitis B virus, genotype D) (UniProt P03138)", "assay": "SDS-PAGE under non-reducing conditions with western blot; lysates of transfected HEK293T cells, -DTT, detected with anti-preS1 antibodies; dimers of ~50 kDa held by intermolecular disulfide bonds"}
{"substance": "HBV S/preS1^16-42 chimeric antigen (from UniProt P03138 16-42)", "values": [{"measurement": "stoichiometry N", "result": 2}]}
